Experimental data published in the supplement of paper PMC9112550, “Optimization of the antimicrobial peptide Bac7 by deep mutational scanning” (BMC Biology, 2022).

System: Escherichia coli TOP10
Experiment: shrunken log2 fold change of peptide-encoding DNA abundance (4.5 h post-induction vs induction); higher = less antimicrobial activity (less host growth inhibition)
Conditions: time post-induction: 4.5 h; library: site-saturation at positions 5, 18, 19, 20
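Further: peptides expressed intracellularly from a pBAD plasmid library in pooled LB shake-flask culture, induced with 0.3% L-arabinose, DNA abundance read by NGS, three biological replicates, DESeq2 with apeglm shrinkage.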

Sequence | shrunken log2 fold change
RRIRNRPPRLPRPRPRPEMQPRP | -0.00804
RRIRNRPPRLPRPRPRPENCPRP | 0.0518
RRIRNRPPRLPRPRPRPENWPRP | 0.0185
RRIRNRPPRLPRPRPRPEPEPRP | 0.0273
RRIRNRPPRLPRPRPRPEPFPRP | -0.0904
RRIRNRPPRLPRPRPRPEPLPRP | 0.00741
RRIRNRPPRLPRPRPRPERYPRP | 0.0573
RRIRNRPPRLPRPRPRPESHPRP | -0.0363
RRIRNRPPRLPRPRPRPETAPRP | 0.536
RRIRNRPPRLPRPRPRPETRPRP | 0.254
RRIRNRPPRLPRPRPRPEVVPRP | -0.252
RRIRNRPPRLPRPRPRPEWSPRP | 0.406
RRIRNRPPRLPRPRPRPFCQPRP | -0.677
RRIRNRPPRLPRPRPRPFDFPRP | -0.161
RRIRNRPPRLPRPRPRPFDMPRP | -0.0725
RRIRNRPPRLPRPRPRPFDWPRP | 0.0435
RRIRNRPPRLPRPRPRPFECPRP | -0.000687
RRIRNRPPRLPRPRPRPFFLPRP | -0.255
RRIRNRPPRLPRPRPRPFGRPRP | -0.0535
RRIRNRPPRLPRPRPRPFISPRP | -0.0484
RRIRNRPPRLPRPRPRPFKWPRP | -0.224
RRIRNRPPRLPRPRPRPFLHPRP | -0.351
RRIRNRPPRLPRPRPRPFMGPRP | -0.168
RRIRNRPPRLPRPRPRPFPPPRP | -0.32
RRIRNRPPRLPRPRPRPFRTPRP | -0.066

Sequence | shrunken log2 fold change
RRIRNRPPRLPRPRPRPFTQPRP | -0.348
RRIRNRPPRLPRPRPRPFVEPRP | -0.12
RRIRNRPPRLPRPRPRPFWCPRP | 0.000145
RRIRNRPPRLPRPRPRPFWFPRP | 0.195
RRIRNRPPRLPRPRPRPFYHPRP | -0.0822
RRIRNRPPRLPRPRPRPGAQPRP | 0.0369
RRIRNRPPRLPRPRPRPGDSPRP | -0.0564
RRIRNRPPRLPRPRPRPGDYPRP | 0.0582
RRIRNRPPRLPRPRPRPGEAPRP | 0.33
RRIRNRPPRLPRPRPRPGFQPRP | -0.0148
RRIRNRPPRLPRPRPRPGGMPRP | -0.0941
RRIRNRPPRLPRPRPRPGGSPRP | 0.407
RRIRNRPPRLPRPRPRPGHYPRP | -0.171
RRIRNRPPRLPRPRPRPGIYPRP | -0.105
RRIRNRPPRLPRPRPRPGLEPRP | -0.0966
RRIRNRPPRLPRPRPRPGLFPRP | 0.0823
RRIRNRPPRLPRPRPRPGNDPRP | -0.0364
RRIRNRPPRLPRPRPRPGNLPRP | -0.186
RRIRNRPPRLPRPRPRPGNWPRP | 0.0557
RRIRNRPPRLPRPRPRPGRVPRP | 0.296
RRIRNRPPRLPRPRPRPGSRPRP | -0.0159
RRIRNRPPRLPRPRPRPGTQPRP | -0.128
RRIRNRPPRLPRPRPRPGTSPRP | -0.0337
RRIRNRPPRLPRPRPRPGVMPRP | -0.141
RRIRNRPPRLPRPRPRPGVQPRP | 0.444

Sequence | shrunken log2 fold change
RRIRNRPPRLPRPRPRPGYKPRP | 0.0376
RRIRNRPPRLPRPRPRPHCQPRP | -0.861
RRIRNRPPRLPRPRPRPHDFPRP | 0.137
RRIRNRPPRLPRPRPRPHEIPRP | -0.102
RRIRNRPPRLPRPRPRPHENPRP | -0.164
RRIRNRPPRLPRPRPRPHGRPRP | 0.00746
RRIRNRPPRLPRPRPRPHHWPRP | -0.0959
RRIRNRPPRLPRPRPRPHIFPRP | -0.0701
RRIRNRPPRLPRPRPRPHISPRP | -0.0617
RRIRNRPPRLPRPRPRPHLNPRP | -0.599
RRIRNRPPRLPRPRPRPHLPPRP | 0.0211
RRIRNRPPRLPRPRPRPHLWPRP | 0.0922
RRIRNRPPRLPRPRPRPHLYPRP | -0.22
RRIRNRPPRLPRPRPRPHMTPRP | 0.0432
RRIRNRPPRLPRPRPRPHPFPRP | -0.0852
RRIRNRPPRLPRPRPRPHRIPRP | -0.0314
RRIRNRPPRLPRPRPRPHRQPRP | -0.0962
RRIRNRPPRLPRPRPRPHRRPRP | 0.143
RRIRNRPPRLPRPRPRPHTAPRP | -0.158
RRIRNRPPRLPRPRPRPHVRPRP | -0.12
RRIRNRPPRLPRPRPRPHYNPRP | -0.619
RRIRNRPPRLPRPRPRPIATPRP | -0.0576
RRIRNRPPRLPRPRPRPICCPRP | -0.062
RRIRNRPPRLPRPRPRPICQPRP | -0.0999
RRIRNRPPRLPRPRPRPIDHPRP | -0.169

Sequence | shrunken log2 fold change
RRIRNRPPRLPRPRPRPIDIPRP | -0.947
RRIRNRPPRLPRPRPRPIDYPRP | -0.168
RRIRNRPPRLPRPRPRPIFKPRP | -0.174
RRIRNRPPRLPRPRPRPIFSPRP | 0.0636
RRIRNRPPRLPRPRPRPIHNPRP | -0.976
RRIRNRPPRLPRPRPRPIHRPRP | 0.0891
RRIRNRPPRLPRPRPRPIKMPRP | -0.404
RRIRNRPPRLPRPRPRPIKPPRP | -0.00904
RRIRNRPPRLPRPRPRPIKYPRP | -0.068
RRIRNRPPRLPRPRPRPILWPRP | 0.123
RRIRNRPPRLPRPRPRPIMKPRP | -0.059
RRIRNRPPRLPRPRPRPIMSPRP | -0.103
RRIRNRPPRLPRPRPRPIPGPRP | -0.0332
RRIRNRPPRLPRPRPRPIPPPRP | -0.0301
RRIRNRPPRLPRPRPRPIRYPRP | -0.746
RRIRNRPPRLPRPRPRPISRPRP | -0.612
RRIRNRPPRLPRPRPRPITTPRP | -0.225
RRIRNRPPRLPRPRPRPITYPRP | -1.09
RRIRNRPPRLPRPRPRPIWIPRP | -0.0856
RRIRNRPPRLPRPRPRPIYYPRP | -0.977
RRIRNRPPRLPRPRPRPKFAPRP | -0.0695
RRIRNRPPRLPRPRPRPKGHPRP | -0.104
RRIRNRPPRLPRPRPRPKIRPRP | -0.0344
RRIRNRPPRLPRPRPRPKKVPRP | -0.0914
RRIRNRPPRLPRPRPRPKLEPRP | 0.0965

Sequence | shrunken log2 fold change
RRIRNRPPRLPRPRPRPKMSPRP | -0.064
RRIRNRPPRLPRPRPRPKNKPRP | -0.0876
RRIRNRPPRLPRPRPRPKNLPRP | 0.13
RRIRNRPPRLPRPRPRPKNPPRP | 0.0494
RRIRNRPPRLPRPRPRPKPTPRP | 0.133
RRIRNRPPRLPRPRPRPKQTPRP | 0.317
RRIRNRPPRLPRPRPRPKRCPRP | 0.406
RRIRNRPPRLPRPRPRPKSGPRP | 0.161
RRIRNRPPRLPRPRPRPKTWPRP | 0.0949
RRIRNRPPRLPRPRPRPKVIPRP | -0.264
RRIRNRPPRLPRPRPRPKVLPRP | -0.105
RRIRNRPPRLPRPRPRPKWQPRP | 0.182
RRIRNRPPRLPRPRPRPKWRPRP | 0.792
RRIRNRPPRLPRPRPRPKYWPRP | -0.387
RRIRNRPPRLPRPRPRPKYYPRP | -0.887
RRIRNRPPRLPRPRPRPLACPRP | 0.118
RRIRNRPPRLPRPRPRPLAFPRP | 0.0414
RRIRNRPPRLPRPRPRPLAHPRP | 0.212
RRIRNRPPRLPRPRPRPLAKPRP | 0.249
RRIRNRPPRLPRPRPRPLCWPRP | -0.198
RRIRNRPPRLPRPRPRPLDCPRP | -0.00858
RRIRNRPPRLPRPRPRPLDEPRP | 0.126
RRIRNRPPRLPRPRPRPLEPPRP | 0.0692
RRIRNRPPRLPRPRPRPLFEPRP | 0.205
RRIRNRPPRLPRPRPRPLGPPRP | 0.0324

Sequence | shrunken log2 fold change
RRIRNRPPRLPRPRPRPLHGPRP | -0.0305
RRIRNRPPRLPRPRPRPLIFPRP | 1.39
RRIRNRPPRLPRPRPRPLIIPRP | -0.433
RRIRNRPPRLPRPRPRPLIVPRP | -0.332
RRIRNRPPRLPRPRPRPLKFPRP | -0.212
RRIRNRPPRLPRPRPRPLKQPRP | 0.114
RRIRNRPPRLPRPRPRPLLRPRP | -0.267
RRIRNRPPRLPRPRPRPLMEPRP | -0.0667
RRIRNRPPRLPRPRPRPLMRPRP | 0.627
RRIRNRPPRLPRPRPRPLMVPRP | -0.254
RRIRNRPPRLPRPRPRPLQFPRP | 0.0375
RRIRNRPPRLPRPRPRPLRDPRP | 0.521
RRIRNRPPRLPRPRPRPLSHPRP | -0.596
RRIRNRPPRLPRPRPRPLTFPRP | -0.0233
RRIRNRPPRLPRPRPRPLVGPRP | 0.0121
RRIRNRPPRLPRPRPRPLVIPRP | -0.432
RRIRNRPPRLPRPRPRPLVNPRP | -0.289
RRIRNRPPRLPRPRPRPLWYPRP | -0.619
RRIRNRPPRLPRPRPRPMCFPRP | -0.114
RRIRNRPPRLPRPRPRPMDSPRP | -0.0507
RRIRNRPPRLPRPRPRPMFGPRP | -0.23
RRIRNRPPRLPRPRPRPMFQPRP | -0.0465
RRIRNRPPRLPRPRPRPMFVPRP | 0.134
RRIRNRPPRLPRPRPRPMGAPRP | 0.115
RRIRNRPPRLPRPRPRPMHEPRP | 0.0425
